To fix the notation:
B1: TCN-031 Fab fragment (Fab, V domains shown)
VH: EVQLVESGGGLVQPGGSLRISCAASGFTVSSNYMSWVRQAPGKGLEWVSVIYSGGSTYYADSVKGRFSFSRDNSKNTVFLQMNSLRAEDTAVYYCARCLSRMRGYGLDVWGQGTTVTVSS
VL: DIQMTQSPSSLSASVGDRVTITCRTSQSISSYLNWYQQKPGKAPKLLIYAASSLQSGVPSRFSGSGSGTDFTLTISGLQPEDFATYYCQQSYSMPAFGQGTKLEIK
B2: TCN-032 Fab fragment (Fab, V domains shown)
VH: QVQLQESGPGLVKPSETLSLTCTVSGSSISNYYWSWIRQSPGKGLEWIGFIYYGGNTKYNPSLKSRVTISQDTSKSQVSLTMSSVTAAESAVYFCARASCSGGYCILDYWGQGTLVTVSS
VL: DIQMTQSPSSLSASVGDRVTITCRASQNIYKYLNWYQQRPGKAPKGLISAASGLQSGVPSRFSGSGSGTDFTLTITSLQPEDFATYYCQQSYSPPLTFGGGTRVEIK
B3: 3245_O19 (antibody, V domains shown)
VH: EVQLVESGGGLVQPGGSLRLSCTASGLSVSSTYMNWVRQAPGKGLEWVSVFYSETRTYYADSVKGRFTVSRHNSNNTLYLQMNSLRVEDTAVYYCARVQRLSYGMDVWGQGTTVTVSS
VL: DIQMTQSPSSLSASVGDRVTITCRASQSISTYLNWYQKRPGKAPKLLVYGASTLQSGVPSRFSGSGSGTDFTLTIASLQPEDSATYYCQQTYSIPLFGQGTRLEIK
B4: 3244_H04 (antibody, V domains shown)
VH: EVQLVESGGGLVQPGGSLRLSCTASGLSVSSTYMNWVRQAPGKGLEWVSVFYSETRTYYADSVKGRFTVSRHNSNNTLYLQMNSLRAEDTAVYYCARVQRLSYGMDVWGQGTTVTVSS
VL: DIQMTQSPSSLSASVGDRVTITCRASQSISTYLNWYQKRPGKAPKLLVYGASSLQSGVPSRFSGSGSGTDFTLTIASLQPEDSAVYYCQQTYSIPLFGQGTRLEIK
B5: 3139_P23 (antibody, V domains shown)
VH: QVQLQESGPRLVKPSESLSLTCTVSGGSISNSFWGWIRQPPGEGLEWIGYVYNSGNTKYNPSLKSRVTISRDTSKSQLYMKLRSVTAADTAVYYCARHDDASHGYSISWGHGTLVTVSS
VL: DIQMTQSPSSLSASVGDRVTITCRASQTISTYLNWYQQKSGKAPKLLIYAASGLQSGVPSRFSGSGSGTDFTLTISSLQPEDFATYFCQQSYNTPLTFGQGTKVEIK
B6: 3259_J21 (antibody, V domains shown)
VH: QVQLQESGPRVVRPSETLSLTCTVSGGSISSYNWIWIRQPPGKGLEWIGHIYDYGRTFYNSSLQSRPTISVDASKNQLSLRLTSVTASDTAVYYCARPLGILHYYAMDLWGQGTTVTVSS
VL: DIQMTQSPLSVSVSVGDRVTIACRASQSIDKFLNWYQQKPGKAPKLLIYGASNLHSGAPSRFSASGSGTDFTLTITNIQTEDFATYLCQQSFSVPAFGGGTKVEIK
B7: 3260_D19 (antibody, V domains shown)
VH: DMQLVESGGGLVPPGGSLRLSCAASGFSVSDNYINWVRQAPGKGLDWVSVFYSADRTSYADSVKGRFTVSSHDSKNTVYLQMNSLRAEDTAVYYCARVQKSYYGMDVWGQGTTVTVSS
VL: GIQMTQSPSSLSASVGDRVTITCRASQSISRYLNWYLQKPGKAPKLLISGASSLQSGVPSRFSGTGSGTEFTLTISSLQPEDFATYYCQQTFSIPLFGQGTKVEIK
B8: 3242_P05 (antibody, V domains shown)
VH: DMQLVESGGGLVPPGGSLRLSCAASGFSVSDNYINWVRQAPGKGLDWVSVFYSADRTSYADSVKGRFTVSSHDSKNTVYLQMNSLRAEDTAVYYCARVQKSYYGMDVWGQGTTVTVSS
VL: GIQMTQSPSSLSASVGDRVTITCRASQSISRYLNWYLQKPGKAPKLLISGASSLQSGVPSRFSGTGSGTEFTLTISSLQPEDFATYYCQQTFSIPLFGQGTKVEIK
B9: 3252_C13 (antibody, V domains shown)
VH: QVQLQESGPGLVKPSETLSLTCTVSGASISSDYWSWIRLPPGKGLEWIGYIYNRGSTKYTPSLKSRVTISLDTAENQFSLRLRSVTAADTAIYYCARHVGGHTYGIDYWGQGTLVTVSS
VL: DIQMTQSPSSLSASVGDRVTITCRASQSISNYLNWYQHKPGEAPKLLNYAASSLQSGVPSRFSASGSGTDFTLTISSLQPEDFATYYCQQSYNTPITFGQGTRLEIK
B10: 3255_J06 (antibody, V domains shown)
VH: QVQLQESGPGLVKPSETLSLTCTVSGASISSDYWSWIRLPPGKGLEWIGYIYNRGSTKYTPSLKSRVTISLDTAENQFSLRLRSVTAADTAVYYCARHVGGHTYGIDYWGQGTLVTVSS
VL: DIQMTQSPSSLSASVGDRVTITCRASQSISNYLNWYQHKPGEAPKLLNYAASSLQSGVPSRFSASGSGTDFTLSISGLQPEDFATYYCQQSYNTPITFGPGTRLEIK
B11: 3362_B11 (antibody, V domains shown)
VH: QVQLQASGPGLVKPSETLSLTCTVSGDSITSGAYYWTWIRQHPGKGLEWIGYIYYSGNTYYNPSLKSRVTISLDTSKNQFSLKVNSVTAADTAVYYCARAASTSVLGYGMDVWGQGTTVTVSS
VL: DIQMTQSPSSLSASVGDRVTITCRASQSISRYLNWYQQEPGKAPKLLVYAASSLQSGVPSRFSGSGSGTDFTLTISSLQPEDFATYYCQQSYSTPLTFGQGTRLEIK
B12: 3420_I23 (antibody, V domains shown)
VH: QVQLQESGPGLVKPSETLSVTCKVSGDSISSYSWSWIRQPPGKGLEWVGYLYYSGSTKYNPSLKSRTTISVDTSTNQLSLKLSFVTAADTAVYFCARTGSESTTGYGMDVWGQGTTVTVSS
VL: DIQMTQSPSSLSASVGDRVTITCRASQSISTYLNWYQQKPGKAPKLLIYAASSLHSGVPSRFSGSGSGTDFALTISSLQPEDFATYYCQQSYSPPITFGQGTRLEIK
B13: 3136_G05 (antibody, V domains shown)
VH: QVQLQESGPGLVKPSETLSLTCSVSGGSISSDFWSWIRQPPGKGLEWIGYVYNRGSTKYSPSLKSRVTISADMSKNQFSLNMSSVTAADTAVYYCAKNGRSSTSWGIDVWGKGTTVTVSS
VL: DIQMTQSPSSLSASVGDRLTITCRASQSISTYLHWYQQKPGKAPKLLIYAASSLQSGVPSRFSGSRSGTDFTLTISSLQPDDFATYYCQQSYSPPLTFGPGTKVDMK
B14: 3248_P18 (antibody, V domains shown)
VH: QVQLQESGPGLVKPSETLSLTCTVSGGSISAYHWSWIRQPPGKGLEWIGHIFDSGSTYYNPSLKSRVTISLDASKNQLSLRLTSVTASDTAIYYCARPLGSRYYYGMDVWGQGTTVTVSS
VL: DIQMTQSPSSLSASVGDRVTITCRASQSISRYLNWYQQKPGKAPKLLIYGASTLQNGAPSRFSGSGSGTDFTLTISSLQPEDSATYLCQQSYSVPAFGGGTKVEVK
B15: 3244_I10 (antibody, V domains shown)
VH: QVQLQESGPGLLKPSDTLALTCTVSGGSITSDYWSWIRQPPGRGLDWIGFFYNGGSTKYNPSLKSRVTISADTSKNQLSLKLTSVTAADTGVYYCARHDAKFSGSYYVASWGQGTRVTVSS
VL: DIQMTQSPSSLSASVGDRVTISCRASQSISTYLNWYQQQPGKAPKVLIFGATNLQSGVPSRFSGSGSGTDFTLTISSLQPEDFATYYCQQSYNTPLIFGQGTKLEIK
B16: 3253_P10 (antibody, V domains shown)
VH: QVQLQESGPGLLKPSDTLALTCTVSGGSITSDYWSWIRQPPGRGLDWIGFFYNGGSTKYNPSLKSRVTISADTSKNQLSLKLTSVTAADTGVYYCARHDAKFSGSYYVASWGQGTRVTVSS
VL: DIQMTQSPSSLSASVGDRVTISCRASQSISTYLNWYQQQPGKAPKVLISGATDLQSGVPSRFSGSGSGTDFTLTISSLQPEDFATYYCQQSYNTPLIFGQGTKLEIK
B17: 3243_J07 (antibody, V domains shown)
VH: QVQLQESGPGLLKPSDTLALTCTVSGGSITSDYWSWIRQPPGRGLDWIGFFYNGGSTKYNPSLKSRVTISADTSKNQLSLKLTSVTAADTGVYYCARHDVKFSGSYYVASWGQGTRVTVSS
VL: DIQMTQSPSSLSASVGDRVTISCRASQSISTYLNWYQQQPGKAPKVLISGATNLQSGVPSRFSGSGSGTDFTLTISSLQPEDFATYYCQQSYNTPLIFGQGTKLEIK
B18: 3241_G23 (antibody, V domains shown)
VH: QVQLQQSGPGLVKPSQTLSLTCTVSGGPVSGGGYSWNWIRQRPGQGLEWVGFMFHSGSPRYNPTLKSRITISVDTSKNLVSLKLSSVTAADTAVYFCARVGQMDKYYAMDVWGQGTTVTVSS
VL: DIQMTQSPSSLSSSVGDRVTITCRASQSIGAYVNWYQQKAGKAPQVLIFGASNLQSGVPSRFSGSGSGTDFTLTISSLQPEDFATYFCQQTYSTPITFGQGTRLEIK

These results are taken from patent US20130158238A1 (THERACLONE SCIENCES, published 2013).

The target of one experiment is M2 protein on influenza A/Puerto Rico/8/34 (H1N1) virus particles (Influenza A virus A/Puerto Rico/8/34 …, UniProt P06821 1-97). The experiment is described as follows: surface plasmon resonance, Fab on influenza virus. On the technique in general: In SPR one partner is held on a chip, and binding of the other changes the refractive index at the surface.
As to B1, the Kd (usually the constant that tells how readily two partners part at equilibrium) was found to be 14 nM; the koff (in general, a measure of how fast the partners let go of each other) was 0.014 s⁻¹; the on-rate (kon) (as a rule, a measure of how fast the partners come together) amounted to 1e+06 M⁻¹ s⁻¹.

The molecule B2 gave a Kd of 3.2 nM, a koff of 0.0023 s⁻¹ and an on-rate (kon) of 740000 M⁻¹ s⁻¹.

For a further experiment, the target named is M2 protein of A/Puerto Rico/8/34 (H1N1), on cells (Influenza A virus A/Puerto Rico/8/34 (H1N1)) (UniProt P06821). The experiment is described as follows: flow cytometry on MDCK cells infected with A/Puerto Rico/8/34.
Turning to TCN-031 (antibody), the EC50 (read off the curve) (in general, the concentration giving half of the maximal effect) was found to be 0.2 µg/mL. On the same count and under the same terms, for TCN-032 (antibody) the value was 0.1 µg/mL.

A further experiment deals with M2 protein of A/Hong Kong/483/1997, on cells (Influenza A virus A/Hong Kong/483/97 (H5N1)). The experiment is described as follows: FACS, supernatant on CHO cells stably expressing M2 of A/Hong Kong/483/97.
The molecule B3 registered an FACS M2-HK MFI of 919 MFI. On the same count and under the same terms, for B4 the value was 963 MFI; for B5, 110 MFI; for B6, 1670 MFI. The same measure, in the same setting: for B7 the value was 846 MFI; for B8, 596 MFI. B9 came in with an FACS M2-HK MFI of 449 MFI.

Turning to B10, the FACS M2-HK MFI stood at 442 MFI. On the same count and under the same terms, in the case of B11 it was 218 MFI; in that of B12, 112 MFI.

In turn, B13 showed an FACS M2-HK MFI of 109 MFI.

Consider B14, for which the FACS M2-HK MFI was 967 MFI.

B15 came in with an FACS M2-HK MFI of 434 MFI. On the same count and under the same terms, for B16 the value was 43 MFI; for B17, 131 MFI.

B18 came in with an FACS M2-HK MFI of 1700 MFI.
